The target in experiment [1] is RET^C634R extracellular domain dimer (human RET residues 1-635 with C634R, C86R and C216S) (human) (UniProt P07949). In words: SEC-MALS; Superdex 200 10/300 GL, 0.25 ml/min, RT, 20 mM Hepes pH 7.5, 100 mM NaCl, 1 mM CaCl2. (Size exclusion chromatography separates by hydrodynamic size, large species first.)
Experiment [2] deals with Fc-GDF15/GFRAL complex (formed beforehand) (human) (UniProt Q99988). In words: BLI; Fc-GDF15 (15 uM) immobilised on anti-hIgG Fc capture biosensors, saturated with GFRAL (3 uM), then RET^C634R 0.3-42 uM; saturation signals fitted to a sigmoidal model.
The target of experiment [3] is GDF15/GFRAL complex (Homo sapiens) (UniProt Q99988). The following applies: cited from earlier work.
In experiment [4] the target is T1, WT RET extracellular domain (human RET residues 1-635) (human, UniProt P07949 29-635, glycosylated (near-native glycans)).
T1 construct: signal peptide in the construct; human RET extracellular domain, residues 1-635; TEV site before the His8-Flag tags; also called RET^WT; RET^WT ECD; source: HEK293T, transient expression, secreted; purified (Ni-NTA, anti-Flag)
T1 sequence (P07949 29-635): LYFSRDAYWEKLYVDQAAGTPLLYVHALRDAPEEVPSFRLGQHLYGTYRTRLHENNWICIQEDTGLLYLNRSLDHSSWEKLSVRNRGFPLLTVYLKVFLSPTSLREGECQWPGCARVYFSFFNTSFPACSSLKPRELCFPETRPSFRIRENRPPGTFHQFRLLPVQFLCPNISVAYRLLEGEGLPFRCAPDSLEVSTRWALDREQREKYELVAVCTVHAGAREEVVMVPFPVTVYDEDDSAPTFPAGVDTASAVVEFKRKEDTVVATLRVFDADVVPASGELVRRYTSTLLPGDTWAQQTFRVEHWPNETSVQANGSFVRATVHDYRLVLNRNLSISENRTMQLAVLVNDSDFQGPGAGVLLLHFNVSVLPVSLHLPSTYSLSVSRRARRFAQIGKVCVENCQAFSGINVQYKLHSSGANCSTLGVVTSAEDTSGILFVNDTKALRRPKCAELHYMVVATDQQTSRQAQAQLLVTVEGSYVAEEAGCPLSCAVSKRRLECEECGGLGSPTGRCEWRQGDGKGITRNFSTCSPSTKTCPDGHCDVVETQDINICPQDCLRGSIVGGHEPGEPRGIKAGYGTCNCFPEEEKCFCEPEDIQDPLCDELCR
In words: native gel or EMSA; Blue Native PAGE; Fc-GDF15 dimer 2 uM + GFRAL 4 uM for 15 min (with or without thrombin), then RET^WT monomer 4 uM or RET^C634R dimer 2 uM; RET + copurified GDNF/GFRα1 at 1:1; 30 min at RT; run at 100 V, 4 °C; also after 5 min heating at 50-85 °C for melting curves. The following applies: both partners purified.

“RET^C634R extracellular domain dimer (human RET residues 1-635 with C634R, C86R and C216S) (from UniProt P07949 29-635) (domain or fragment)”: in experiment [1], the stoichiometry N (commonly a count of units in the complex or per binding partner) is 2. Further, the Kd – broadly, the concentration at which binding is half-saturated – in experiment [2] is 8.5 µM.

With RET ECD (from UniProt P07949), in experiment [3], the dissociation constant (Kd) is 3.2 µM.

B1: GDF15/GFRAL complex with the Fc removed by thrombin (formed beforehand) (complex, human)
chain 1: ARARNGDHCPLGPGRCCRLHTVRASLEDLGWADWVLSPREVQVTMCIGACPSQFRAANMHAQIKTSLHRLKPDTVPAPCCVPASYNPMVLIQKTDTGVSLQTYDDLLAKDCHCI
chain 2: SQTNNCTYLREQCLRDANGCKHAWRVMEDACNDSDPGDPCKMRNSSYCNLSIQYLVESNFQFKECLCTDDFYCTVNKLLGKKCINKSDNVKEDKFKWNLTTRSHHGFKGMWSCLEVAEACVGDVVCNAQLASYLKACSANGNPCDLKQCQAAIRFFYQNIPFNIAQMLAFCDCAQSDIPCQQSKEALHSKTCAVNMVPPPTCLSVIRSCQNDELCRRHYRTFQSKCWQRVTRKCHEDENCISTLSKQDLTCSGSDDCKAAYIDILGTVLQVQCTCRTITQSEESLCKIFQHMLHRKSCFNYPTLSNVKGMALYTRKHANKITLTGFHSPFNGE
notes: human GDF15, residues 195-308; human GFRAL, residues 19-351; as m4; not shown: modified Fc, N-terminal, cleaved; copies: 2 + 2
As to B1, the binding result in experiment [4] is given as “binds”.

The values above are taken from article PMC9490035, “Unexpected structures formed by the kinase RET C634R mutant extracellular domain suggest potential oncogenic mechanisms in MEN2A” (The Journal of Biological Chemistry, 2022).
